To fix the notation:
B1: PsaF subunit of photosystem I (natural protein, Synechocystis sp. PCC 6803, UniProt P29256 24-165, looked up)
chain: DDFANLTPCSENPAYLAKSKNFLNTTNDPNSGKIRAERYASALCGPEGYPHLIVDGRFTHAGDFLIPSILFLYIAGWIGWVGRSYLIEIRESKNPEMQEVVINVPLAIKKMLGGFLWPLAAVGEYTSGKLVMKDSEIPTSPR
notes: PsaF, PSI subunit, Synechocystis sp; PCC 6803; Stood in the assay as a subunit of PSI; also called PsaF/J; PsaJ/F; source: endogenous, purified as part of the PSI-IsiA supercomplex from Synechocystis sp; PCC 6803 (DDM-solubilised membranes, DEAE column, sucrose gradients)
B2: PsaJ subunit of photosystem I (natural protein, Synechocystis sp. PCC 6803, UniProt Q55329 1-40, looked up)
chain: MDGLKSFLSTAPVMIMALLTFTAGILIEFNRFYPDLLFHP
notes: PsaJ, PSI subunit, Synechocystis sp; PCC 6803; Stood in the assay as a subunit of PSI; also called PsaF/J; PsaJ/F; source: endogenous, purified as part of the PSI-IsiA supercomplex from Synechocystis sp; PCC 6803 (DDM-solubilised membranes, DEAE column, sucrose gradients)
B3: iron-stressed induced protein A (IsiA) (natural protein)
chain: not shown
notes: IsiA, iron-stressed induced protein A, Synechocystis sp; PCC 6803; six trans-membrane helices; model rebuilt from subunit X of PDB 6NWA; Each IsiA protomer coordinates 17 chlorophylls and 4 carotenoids; 18 copies form the ring around the PSI trimer; also called IsiA protomer; IsiA monomer; source: endogenous, purified as PSI-IsiA supercomplex from Synechocystis sp; PCC 6803 grown with low iron …

For data set [1], the target named is B3. The data set can be described thus: cryo-EM structure; native PSI3-IsiA18 supercomplex co-purified from Synechocystis sp. PCC 6803 membranes in DDM; 30 mM Tricine-NaOH pH 8, 75 mM NaCl, 0.02% DDM; 1.5 mg chlorophyll/ml; vitrified on holey carbon grids; C3 symmetry expansion and multibody refinement. The following applies: both partners purified.
Data set [2] deals with the molecule itself. Described as above.

The record followed here is publication PMC10397321, “Energetic robustness to large scale structural fluctuations in a photosynthetic supercomplex” (Nature Communications, 2023).

For orientation: stoichiometry N means the number of molecules, sites or subunits per partner or assembly.

Turning to B1, the binding result in data set [1] was “binds”.
The same measure, in the same setting: the result for B2 reads “binds”.
With B3, the “stoichiometry N” value in data set [2] stood at 18.
